Data from publication PMC2765525.

Molecular target: KIX domain (residues 568-672) of mouse CBP (mouse) (UniProt P45481)
Experiment: NMR titration

Chain of KIX domain (residues 568-672) of mouse CBP (mouse) (P45481 568-672): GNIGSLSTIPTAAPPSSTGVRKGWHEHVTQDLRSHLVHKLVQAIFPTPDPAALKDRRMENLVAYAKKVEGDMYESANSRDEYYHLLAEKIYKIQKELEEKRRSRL

Kd: 214 µM
Substance: p53(14-28) (from UniProt P04637 14-28) (peptide)
